Source: patent publication US20250197495A1 (Bristol-Myers Squibb, published 2025)

Target: T1, cynomolgus LAG-3 (cynomolgus)
T1 construct: whole, on cells; also called primate LAG-3
Assay: flow cytometry on transfected CHO cells and activated cynomolgus T cells; which cell type gives which end is not stated

B1: BMS-986016 (antibody, human IgG4 S228P, kappa, V domains shown)
VH: QVQLQQWGAGLLKPSETLSLTCAVYGGSFSDYYWNWIRQPPGKGLEWIGEINHRGSTNSNPSLKSRVTLSLDTSKNQFSLKLRSVTAADTAVYYCAFGYSDYEYNWFDPWGQGTLVTVSS
VL: EIVLTQSPATLSLSPGERATLSCRASQSISSYLAWYQQKPGQAPRLLIYDASNRATGIPARFSGSGSGTDFTLTISSLEPEDFAVYYCQQRSNWPLTFGQGTNLEIKR
notes: Fully human IgG4 with the stabilizing hinge mutation S228P; also called anti-LAG-3 antibody
  EC50: 21.5 to 34.3 nM
